Experimental data: publication PMC9482650, “Quantitative fragmentomics allow affinity mapping of interactomes” (Nature Communications, 2022)

Assays:
Assay in all cases: holdup assay
Design in all cases: key: below the threshold = too weak to quantify, mostly under pKd 3.1 to 4
GRIP1_3, Q9Y3R0 = target: T1, GRIP1_3, Q9Y3R0
T1 sequence (Q9Y3R0 247-346, limits assumed, looked up): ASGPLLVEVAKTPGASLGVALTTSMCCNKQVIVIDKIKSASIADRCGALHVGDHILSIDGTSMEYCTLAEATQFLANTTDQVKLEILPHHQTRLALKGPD

NHERF4_2, Q86UT5 = target: NHERF4_2, Q86UT5
NHERF4_2, Q86UT5, sequence (Q86UT5 220-308): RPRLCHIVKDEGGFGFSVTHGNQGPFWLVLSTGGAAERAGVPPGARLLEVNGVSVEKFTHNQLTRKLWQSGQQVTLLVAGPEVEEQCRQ

Inadl_10, Q8NI35 = target: Inadl_10, Q8NI35
Inadl_10, Q8NI35, sequence (Q8NI35 1673-1763): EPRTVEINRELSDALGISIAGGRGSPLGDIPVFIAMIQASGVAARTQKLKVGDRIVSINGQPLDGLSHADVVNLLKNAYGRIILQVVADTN

MAGI2_3, Q86UL8 = target: MAGI2_3, Q86UL8
MAGI2_3, Q86UL8, sequence (Q86UL8 600-682): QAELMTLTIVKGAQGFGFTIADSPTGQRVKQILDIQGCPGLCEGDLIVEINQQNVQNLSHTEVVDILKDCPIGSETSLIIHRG

MAGI2_5, Q86UL8 = target: MAGI2_5, Q86UL8
MAGI2_5, Q86UL8, sequence (Q86UL8 915-1017): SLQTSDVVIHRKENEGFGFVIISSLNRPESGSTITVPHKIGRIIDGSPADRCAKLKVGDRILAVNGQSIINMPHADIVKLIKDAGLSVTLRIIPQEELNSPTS

DVL3, Q92997 = target: T2, DVL3, Q92997
T2 sequence (Q92997 244-331, limits assumed, looked up): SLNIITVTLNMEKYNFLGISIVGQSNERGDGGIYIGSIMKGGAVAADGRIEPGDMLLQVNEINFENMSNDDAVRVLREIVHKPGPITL

DFNB31_1, Q9P202 = target: T3, DFNB31_1, Q9P202
T3 sequence (Q9P202 135-233, limits assumed, looked up): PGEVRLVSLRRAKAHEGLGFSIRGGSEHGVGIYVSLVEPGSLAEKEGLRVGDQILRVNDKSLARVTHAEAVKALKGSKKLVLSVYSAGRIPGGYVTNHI

SCRIB_3, Q14160 = target: SCRIB_3, Q14160
SCRIB_3, Q14160, sequence (Q14160 999-1103): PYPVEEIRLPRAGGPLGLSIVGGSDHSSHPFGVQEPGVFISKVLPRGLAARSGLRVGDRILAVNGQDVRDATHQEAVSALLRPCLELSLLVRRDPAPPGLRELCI

DLG1_2, Q12959 = target: DLG1_2, Q12959
DLG1_2, Q12959, sequence (Q12959 314-412): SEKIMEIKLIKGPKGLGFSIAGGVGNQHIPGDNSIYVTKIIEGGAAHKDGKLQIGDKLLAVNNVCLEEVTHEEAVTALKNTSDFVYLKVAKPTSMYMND

PDZRN3_1, Q9UPQ7 = target: T4, PDZRN3_1, Q9UPQ7
T4 sequence (Q9UPQ7 244-349, limits assumed, looked up): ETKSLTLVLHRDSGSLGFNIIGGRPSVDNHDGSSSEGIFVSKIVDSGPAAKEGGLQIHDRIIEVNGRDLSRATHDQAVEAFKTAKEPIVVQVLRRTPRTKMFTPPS

RHPN1, Q8TCX5 = target: T5, RHPN1, Q8TCX5
T5 sequence (Q8TCX5 508-602, limits assumed, looked up): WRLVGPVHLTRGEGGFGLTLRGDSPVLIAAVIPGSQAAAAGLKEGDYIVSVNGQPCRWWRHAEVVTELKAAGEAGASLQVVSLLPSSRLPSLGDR

DLG2_3, Q15700 = target: DLG2_3, Q15700
Inadl_4, Q8NI35 = target: Inadl_4, Q8NI35
Inadl_4, Q8NI35, sequence (Q8NI35 547-651): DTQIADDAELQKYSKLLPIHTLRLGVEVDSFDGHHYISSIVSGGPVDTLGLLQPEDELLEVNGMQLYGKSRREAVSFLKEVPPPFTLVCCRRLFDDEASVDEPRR

APBA2_1, Q99767 = target: T6, APBA2_1, Q99767
T6 sequence (Q99767 563-664, limits assumed, looked up): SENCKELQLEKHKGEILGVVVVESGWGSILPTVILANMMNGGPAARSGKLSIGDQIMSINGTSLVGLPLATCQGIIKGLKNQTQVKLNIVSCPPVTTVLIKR

ARHGEF12, Q9NZN5-2 = target: ARHGEF12, Q9NZN5-2
ARHGEF12, Q9NZN5-2, sequence (Q9NZN5 other isoform, or with tags, fused parts or gaps): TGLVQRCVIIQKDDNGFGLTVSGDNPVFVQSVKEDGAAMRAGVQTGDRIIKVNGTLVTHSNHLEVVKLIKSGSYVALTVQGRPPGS

AHNAK1, Q09666 = target: AHNAK1, Q09666
AHNAK1, Q09666, sequence (Q09666 4-100): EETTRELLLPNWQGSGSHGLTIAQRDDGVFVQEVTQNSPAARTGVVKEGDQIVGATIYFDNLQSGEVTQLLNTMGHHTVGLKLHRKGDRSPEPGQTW

SNTG2, Q9NY99 = target: T7, SNTG2, Q9NY99
T7 sequence (Q9NY99 68-166, limits assumed, looked up): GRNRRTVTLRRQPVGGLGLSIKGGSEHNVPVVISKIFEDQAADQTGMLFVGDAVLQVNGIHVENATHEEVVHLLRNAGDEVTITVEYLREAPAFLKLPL

LRRC7, Q96NW7 = target: T8, LRRC7, Q96NW7
T8 sequence (Q96NW7 1440-1537, limits assumed, looked up): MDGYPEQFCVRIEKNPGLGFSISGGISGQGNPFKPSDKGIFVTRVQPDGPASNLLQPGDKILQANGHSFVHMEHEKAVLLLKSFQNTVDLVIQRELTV

SNTB1, Q13884 = target: T9, SNTB1, Q13884
T9 sequence (Q13884 107-205, limits assumed, looked up): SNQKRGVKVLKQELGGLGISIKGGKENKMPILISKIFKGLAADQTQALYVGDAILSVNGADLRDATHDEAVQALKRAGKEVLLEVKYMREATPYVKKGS

GRIP1_2, Q9Y3R0 = target: T10, GRIP1_2, Q9Y3R0
T10 sequence (Q9Y3R0 145-248, limits assumed, looked up): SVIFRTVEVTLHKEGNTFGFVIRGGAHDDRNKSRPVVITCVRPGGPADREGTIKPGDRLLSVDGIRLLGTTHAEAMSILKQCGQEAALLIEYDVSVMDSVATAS

RADIL, Q96JH8 = target: T11, RADIL, Q96JH8
T11 sequence (Q96JH8 971-1071, limits assumed, looked up): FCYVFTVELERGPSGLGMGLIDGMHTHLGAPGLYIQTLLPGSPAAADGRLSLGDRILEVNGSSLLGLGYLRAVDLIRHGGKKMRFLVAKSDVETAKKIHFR

SCRIB_1, Q14160 = target: SCRIB_1, Q14160
SCRIB_1, Q14160, sequence (Q14160 718-814): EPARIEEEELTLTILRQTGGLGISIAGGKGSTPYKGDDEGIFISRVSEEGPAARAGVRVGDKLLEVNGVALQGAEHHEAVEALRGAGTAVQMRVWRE

DLG4_3, P78352 = target: DLG4_3, P78352
DLG4_3, P78352, sequence (P78352 306-403): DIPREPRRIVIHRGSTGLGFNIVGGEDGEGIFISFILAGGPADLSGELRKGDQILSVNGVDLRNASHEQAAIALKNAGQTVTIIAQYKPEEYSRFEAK

PARD3_3, Q8TEW0 = target: PARD3_3, Q8TEW0
PARD3_3, Q8TEW0, sequence (Q8TEW0 582-685): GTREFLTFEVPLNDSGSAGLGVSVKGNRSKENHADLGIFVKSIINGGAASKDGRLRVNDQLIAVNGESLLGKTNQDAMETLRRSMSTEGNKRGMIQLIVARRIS

MPDZ_12, O75970 = target: T12, MPDZ_12, O75970
T12 sequence (O75970 1857-1958, limits assumed, looked up): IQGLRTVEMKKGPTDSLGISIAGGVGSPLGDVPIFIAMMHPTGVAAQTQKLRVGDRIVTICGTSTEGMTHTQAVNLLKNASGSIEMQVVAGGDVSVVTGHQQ

[1] = plain residues with an end cap or a label only (N-terminal biotin on a linker: ado-ado)
[2] = modified: phospho on T at position -2 from the C-terminal residue

For QLKSGRDSTV [TMEM178A, Q8NBL3], the pKd (GRIP1_3, Q9Y3R0; [1]) was “below the threshold”, the pKd (NHERF4_2, Q86UT5; [1]) was 3.62 and the pKd (Inadl_10, Q8NI35; [1]) was “below the threshold”. The pKd (MAGI2_3, Q86UL8; [1]) was “below the threshold”, the pKd (MAGI2_5, Q86UL8; [1]) was “below the threshold” and the pKd (DVL3, Q92997; [1]) was “below the threshold”. The pKd (DFNB31_1, Q9P202; [1]) was 3.6, the pKd (SCRIB_3, Q14160; [1]) was 3.48 and the pKd (DLG1_2, Q12959; [1]) was 4.64. The pKd (PDZRN3_1, Q9UPQ7; [1]) was 3.74, the pKd (RHPN1, Q8TCX5; [1]) was 4.06 and the pKd (DLG2_3, Q15700; [1]) was “below the threshold”. The pKd (Inadl_4, Q8NI35; [1]) was “below the threshold”, the pKd (APBA2_1, Q99767; [1]) was 3.52 and the pKd (ARHGEF12, Q9NZN5-2; [1]) was “below the threshold”. The pKd (AHNAK1, Q09666; [1]) was 3.55, the pKd (SNTG2, Q9NY99; [1]) was 3.77 and the pKd (LRRC7, Q96NW7; [1]) was “below the threshold”. For the same binder, the pKd (SNTB1, Q13884; [1]) was 4.1, the pKd (GRIP1_2, Q9Y3R0; [1]) was “below the threshold” and the pKd (RADIL, Q96JH8; [1]) was 3.51. The pKd (SCRIB_1, Q14160; [1]) was 3.56, the pKd (DLG4_3, P78352; [1]) was “below the threshold” and the pKd (PARD3_3, Q8TEW0; [1]) was 3.5. For the same binder, the pKd (MPDZ_12, O75970; [1]) was “below the threshold”.

With SRSRRRETAL [HPV33-E6_-2P, P06427] the pKd (GRIP1_3, Q9Y3R0; [2]) was “below the threshold”, the pKd (NHERF4_2, Q86UT5; [2]) was “below the threshold” and the pKd (Inadl_10, Q8NI35; [2]) was “below the threshold”. The pKd (MAGI2_3, Q86UL8; [2]) was “below the threshold”, the pKd (MAGI2_5, Q86UL8; [2]) was “below the threshold” and the pKd (DVL3, Q92997; [2]) was “below the threshold”. The pKd (DFNB31_1, Q9P202; [2]) was “below the threshold”, the pKd (SCRIB_3, Q14160; [2]) was “below the threshold” and the pKd (DLG1_2, Q12959; [2]) was “below the threshold”. The pKd (PDZRN3_1, Q9UPQ7; [2]) was “below the threshold”, the pKd (RHPN1, Q8TCX5; [2]) was “below the threshold” and the pKd (DLG2_3, Q15700; [2]) was “below the threshold”. The pKd (Inadl_4, Q8NI35; [2]) was “below the threshold”, the pKd (APBA2_1, Q99767; [2]) was “below the threshold” and the pKd (ARHGEF12, Q9NZN5-2; [2]) was “below the threshold”. The pKd (AHNAK1, Q09666; [2]) was “below the threshold”, the pKd (SNTG2, Q9NY99; [2]) was “below the threshold” and the pKd (LRRC7, Q96NW7; [2]) was “below the threshold”. The pKd (SNTB1, Q13884; [2]) was “below the threshold”, the pKd (GRIP1_2, Q9Y3R0; [2]) was “below the threshold” and the pKd (RADIL, Q96JH8; [2]) was “below the threshold”. For the same binder, the pKd (SCRIB_1, Q14160; [2]) was “below the threshold”, the pKd (DLG4_3, P78352; [2]) was “below the threshold” and the pKd (PARD3_3, Q8TEW0; [2]) was “below the threshold”. For the same binder, the pKd (MPDZ_12, O75970; [2]) was “below the threshold”.
